This note sets out measurements from patent US20190382493A1 (published 2019).

Where a chain is given by its changes, count along the chain named. Read-outs that look alike come from different tables or passages of the source.

The target in test [1] is T1, cynomolgus monkey (cyno) PDL1-Fc (Sino biological) (cynomolgus monkey, UniProt G7PSE7 19-239). In words: ELISA. (In general: In an ELISA, binding on a coated surface is turned into a signal by an enzyme label.)
Test [2] concerns the target T2, human PDL1-Fc (R & D Systems) (human, UniProt Q9NZQ7 19-239). In words: ELISA.
Test [3] concerns the target T3, mouse PDL1-Fc (R & D Systems) (mouse, UniProt Q9EP73 19-238). The test can be described thus: ELISA.
Test [4] concerns the target T4, human PDL1 (R&D Systems) (human, UniProt Q9NZQ7 19-239). The test can be described thus: ELISA blocking of human PD-1 binding to PDL1; hPD-1 blockade.
Test [5] concerns the target T4, human PDL1 (R&D Systems). In words: ELISA blocking of human B7-1 binding to PDL1; hB7-1 blockade.
Test [6] concerns the target T5, cyno PDL1 (adsorbed in blockade assays) (cynomolgus monkey, UniProt G7PSE7 19-239). In words: ELISA blocking of cyno B7-1 binding to PDL1; cyno B7-1 blockade.
In test [7] the target is T5, cyno PDL1 (adsorbed in blockade assays). In words: ELISA blocking of cyno PD-1 binding to PDL1; cyno PD1 blockade.
Test [8] has as its target T1, cynomolgus monkey (cyno) PDL1-Fc (Sino …). In words: ELISA. This is another data set of the same source.
In test [9] the target is T2, human PDL1-Fc (R & D Systems). The test can be described thus: ELISA. The source holds these as a separate data set.
For test [10], the target named is T3, mouse PDL1-Fc (R & D Systems). The test can be described thus: ELISA. The source holds these as a separate data set.

T1 sequence (G7PSE7 entry or part of it): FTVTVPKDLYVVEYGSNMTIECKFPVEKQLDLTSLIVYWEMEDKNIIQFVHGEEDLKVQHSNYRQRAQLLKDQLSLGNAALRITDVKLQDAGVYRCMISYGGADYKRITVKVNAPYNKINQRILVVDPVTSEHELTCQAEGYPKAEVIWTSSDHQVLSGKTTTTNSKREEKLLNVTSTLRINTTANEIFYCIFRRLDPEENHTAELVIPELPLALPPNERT
T5 sequence (G7PSE7 entry or part of it): as above
T4 sequence (Q9NZQ7 19-239): as the sequence (G7PSE7 entry or part of it) above, with T33A, S34A, N62S, Q68R, R82Q, L173F, A185T, I192T, L215H counted along it
T2 sequence (Q9NZQ7 19-239): as the sequence (G7PSE7 entry or part of it) above, with T33A, S34A, N62S, Q68R, R82Q, L173F, A185T, I192T, L215H counted along it
T3 sequence (Q9EP73 19-238): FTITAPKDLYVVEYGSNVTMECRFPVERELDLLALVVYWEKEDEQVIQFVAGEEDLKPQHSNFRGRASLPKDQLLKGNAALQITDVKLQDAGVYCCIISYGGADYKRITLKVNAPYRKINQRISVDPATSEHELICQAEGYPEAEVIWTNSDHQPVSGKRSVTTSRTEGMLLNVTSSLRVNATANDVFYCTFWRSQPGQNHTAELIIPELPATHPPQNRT

B1: anti-PDL1 antibody C5H9v2 (antibody, V domains shown)
VH: EVQLLESGGGLVQPGGSLRLSCAASGFTFSSYAMSWVRQAPGKGLEWVSSIWRNGIVTVYADSVKGRFTISRDNSKNTLYLQMNSLRAEDTAVYYCAKWSAAFDYWGQGTLVTVSS
VL: DIQMTQSPSSLSASVGDRVTITCRASQSISSYLNWYQQKPGKAPKLLIYAASSLQSGVPSRFSGSGSGTDFTLTISSLQPEDFATYYCQQDNGYPSTFGGGTKVEIKR
On to B1, for which the dissociation constant Kd in test [1] is 0.544 nM; in [2], 0.272 nM; in test [3], 0.464 nM. For the same molecule, the values for the IC50 in [4], in test [5] and in test [6] were 0.7 nM, 0.5 nM and 0.1 nM, respectively.

B2: anti-PDL1 activatable antibody PL07-2001-C5H9v2 (antibody)
VH: B1 VH
VL: QGQSGSGIALCPSHFCQLPQTGGGSSGGSGGSGGISSGLLSGRSDNHGGSDIQMTQSPSSLSASVGDRVTITCRASQSISSYLNWYQQKPGKAPKLLIYAASSLQSGVPSRFSGSGSGTDFTLTISSLQPEDFATYYCQQDNGYPSTFGGGTKVEIKR
For B2, the IC50 in test [4] was 39.8 nM; in [5], 11.7 nM; in [7], 7 nM; in test [6], 9.6 nM.

B3: anti-PDL1 antibody C5H9 (antibody, V domains shown)
VH: B1 VH
VL: B1 VL with A50Y, S53T, G100Q
With B3, the Kd was found to be 0.398 nM in [1], 0.286 nM in test [2] and 0.475 nM in test [3].

B4: C5H9 mIgG2a (antibody, V domains shown)
VH: B1 VH
VL: B1 VL with A50Y, S53T, G100Q
Turning to B4, the results for the Kd in test [8], in test [9] and in test [10] were 0.399 nM, 0.515 nM and 0.666 nM, respectively.

A word on the Kd: it is the constant that tells how readily two partners part at equilibrium. In general, IC50 refers to the point on the concentration scale where inhibition reaches its midpoint.
